Experimental data published in patent US20160257732A1.
Changes are numbered by the printed parent chain.

B1: Antibody 5 (antibody, V domains shown)
VH: QVQLQQSGPGLVKPSQTLSLTCAISGDRVSSNSAVWNWIRQSPSRGLEWLGRTYYRSKWYYDYAESVKSRIVIDPDTSKNQVSLQLNSVTPEDSAIYYCARGGHITVFGLNIDAYDIWGQGAMVTVSS
VL: DIQMTQSPSSLSASVGDRVTISCRAQSLSSYLHWYQQKPGQPPKLLIYAATTLQSGVPSRFSGSGSGTDFTLTISTFQAEDVATYYCQQSRTFGQGTKVEIK
B2: Antibody 6 (antibody, V domains shown)
VH: B1 VH with V107E
VL: B1 VL
B3: Antibody 8 (antibody, V domains shown)
VH: QVQLQQSGPGLVKPSQTLSLTCVISGDTVSSNRATWNWMRQSPLRGLEWLGRTYYRSKWYNDYAVSVKSRVVINPDTSKNQVSLQLNTVTPDDSGVYFCARGGHITVFGVNIDAFDIWGLGTKVTVSS
VL: DIQMTQSPSSLSASVGDRVTISCRASQRLNSYLHWYQQTPGQAPKLLIYATSTLQSGVSPRFSGSGSGTDFTLTISSLQPEDVATYYCQLSRTFGHGTKVEIK
B4: Antibody 10 (antibody, V domains shown)
VH: QVQLQQSGPGLVKPSQTLSLTCAISGDSVSSNSATWNWIRQSPSRGLEWLGRTYYRSKWYNDYADFLKRRITINPDTSNNEVSLRLTSVTPDDTALYYCARGGHITVFGVNIDAFDVWGQGTMVTVSS
VL: DIQMTQSPSSLSASVGDRITISCRTSQSLRSYLHWYQQKPGKAPKLLIYASSTLQSGVPSRFSGSGSGTDFTLTISNLQPEDFATYYCQLSRTFGQGTKVEIK

How the values were obtained:
[1] = target: recombinant HA (rHA), subtype H7 (A/Netherlands/219/03(H7N7)) (influenza A virus); experiment: ELISA, coated rHA
[2] = target: recombinant HA (rHA), subtype H9 (A/chicken/HK/G9/97(H9N2)) (influenza A virus); experiment: ELISA, coated rHA
[3] = target: recombinant HA (rHA), subtype H6 (A/teal/HK/W312/97(H6N1)) (influenza A virus); experiment: ELISA, coated rHA
[4] = target: recombinant HA (rHA), subtype H5 (A/Vietnam/1203/04(H5N1)) (influenza A virus); experiment: ELISA, coated rHA
[5] = target: recombinant HA (rHA), subtype H3 (A/Perth/16/09 (H3N2)) (influenza A virus); experiment: ELISA, coated rHA
[6] = target: recombinant HA (rHA), subtype H2 (A/Swine/MO/06 (H2N3)) (influenza A virus); experiment: ELISA, coated rHA
[7] = target: His-tagged HA subtype H1 (A/California/7/04 (H1N1)) (influenza A virus); experiment: Octet BLI, His-tagged HA on anti-His sensors
[8] = target: His-tagged HA subtype H3 (A/Perth/16/09 (H3N2)) (influenza A virus); experiment: Octet BLI, His-tagged HA on anti-His sensors

Row | Binder | EC50 [1] [µg/mL] | EC50 [2] [µg/mL] | EC50 [3] [µg/mL] | EC50 [4] [µg/mL] | EC50 [5] [µg/mL] | EC50 [6] [µg/mL] | Kd [7] [nM] | koff [7] [s⁻¹] | kon [7] [M⁻¹ s⁻¹] | Kd [8] [nM] | koff [8] [s⁻¹] | kon [8] [M⁻¹ s⁻¹]
1 | B1 | 0.024 | > 6 | 0.047 | 0.041 | 0.03 | 0.048 | 0.005 | < 5e-06 | 1e+06 | 0.338 | 8.8e-05 | 260000
2 | B2 | 0.116 | > 6 | 0.214 | 0.256 | 0.064 | 0.213 | – | – | – | – | – | –
3 | B3 | 0.015 | > 6 | 0.091 | 0.044 | 0.067 | 0.058 | – | – | – | – | – | –
4 | B4 | 0.034 | 2.7 | 0.097 | 0.058 | 0.049 | 0.075 | – | – | – | – | – | –
